We go through 29 molecules from patent US20240409645A1 (DUALYX, published 2024).

Residue numbers refer to the chain shown, from its start.

T1: human IL-2Rβ (human, UniProt P14784 27-240, limits assumed)
T1 construct: Recombinant protein, coated (ELISA) or immobilised on CM5 (SPR); also called hu IL-2R; interleukin 2 receptor β-chain
T1 sequence: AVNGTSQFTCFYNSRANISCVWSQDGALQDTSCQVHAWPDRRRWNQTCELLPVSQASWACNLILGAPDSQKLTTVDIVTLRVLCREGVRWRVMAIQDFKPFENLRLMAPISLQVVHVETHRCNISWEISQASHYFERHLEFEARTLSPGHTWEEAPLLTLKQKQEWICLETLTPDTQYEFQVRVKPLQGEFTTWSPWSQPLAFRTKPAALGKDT

B1: FJ1427 P035MP03F11 (VHH)
VHH: QVQLVESGGGLAQAGGSLRLSCAASGRTFSQDAKAWFRQAPGKEREFVAAITWSGRDTDYADSVKGRFTIARDNAKNTVYLQMDSLKPEDTAVYYCAVYPQGTIGPYFRSSNHYDYWGQGTQVTVSS
notes: soluble VHH in periplasmic extract; also called clone nr
B2: FJ1427 P035MP03C12 (VHH)
VHH: QVQLVESGGGLVQAGGSLRLSCAASGRAFSTYSMGWFRQTPGKEREFVAIISESGGIIDYGDSVKGRFTLSRDNAKNTVSLQMSSLQPEDTAVYYCAAARDWFARTAYQYDYWGQGTQVTVSA
notes: as for B1
B3: FJ1427 P035MP03H10 (VHH)
VHH: QVQLVESGGGLVQAGGSLRLSCAASGRTFSTTEMGWFRQAPGKEREFVAAITWTGRGTMYAESVEGRFTISRENAKNMVYLQMNSLKPEDTAIYYCAAARRGRAAVRSEGGYDFWGQGTQVTVSS
notes: as for B1
B4: FJ1427_P035MP03B09 (VHH)
VHH: QVQLVESGGGLVQAGGSLRLSCVVSGDVFVRYTMAWFRQAPGKEREFVTSITDSGRTTEYVDSVKGRFTVSRDNAKNTVYLQMNNLKPEDTAVYYCAANTDYFRIRSLDANTWGQGTQVTVSS
notes: as for B1
B5: FJ1427_P035MP06E02 (VHH)
VHH: B4 VHH with V23A, T49A, S50T, I51V
notes: as for B1
B6: FJ1427_P035MP03G09 (VHH)
VHH: B4 VHH with T49A, S50V, I51V, R104Q, L108V, A110N, T112A
notes: as for B1
B7: FJ1427_P035MP06C01 (VHH)
VHH: B4 VHH with V23A, V24A, T49A, I51V, E59D, N85A, R104Q, R106K, A110L
notes: as for B1
B8: FJ1427_P035MP06H01 (VHH)
VHH: B4 VHH with Q1E, V23A, T49A, I51V, E59D, D62H, R104Q, R106K
notes: as for B1
B9: FJ1427_P035MP06B02 (VHH)
VHH: B4 VHH with T49A, S50A, I51V, R104Q, L108V, A110N, T112A
notes: soluble VHH in periplasmic extract; also called clone nr; 490
B10: FJ1427_P035MP06A01 (VHH)
VHH: QVQLVESGGGLVQAGGSLRLACALSGDVFVRYTMAWFRQAPGKEREFVASVTDSGRTTDYVASVQGRFTVSRDNNKNTVYLQMNSLKPEDTAVYYCAANTDYFQIRSLDRNTWGQGTQVTVSS
notes: as for B1
B11: FJ1427_P035MP03H07 (VHH)
VHH: B4 VHH with Q1E, T49A, S50A, I51V, R104Q, L108V, A110N, T112A
notes: as for B1
B12: FJ1427_P035MP03G08 (VHH)
VHH: B10 VHH with E44G
notes: as for B1
B13: FJ1427_P035MP03G11 (VHH)
VHH: B10 VHH with Q1E, A21S, L24A, A62D, Q65K, N75A, S85N, D109E, R110F
notes: as for B1
B14: FJ1427_P035MP03E11 (VHH)
VHH: B4 VHH with Q1E, T49A, S50A, I51V, K87E, R104Q, L108V, A110N, T112A
notes: as for B1
B15: FJ1427_P035MP03E10 (VHH)
VHH: EVQLVESGGGLVQPGGSLRLSCAASGFTFRNYAMSWVRQAPGKGLEWVGGITGEGLGTIYQDSVEGRFTISRNNAKNTLYLQMNSLRSEDTAVYYCTKMASGTLFRDKPYEYTSRGQGTQVTVSS
notes: as for B1
B16: FJ1427_P035MP03C07 (VHH)
VHH: QVQLVESGGGLVQAGDSLRLSCAASGRSLSTDCMGWVRQAPGKEREFVAGITWGTGSTLYADSVEGRFTISKDNAKNTGYLQMSSLKPEDTAVYYCAVDRYCYRGTVYRDWGRGTQVTVSS
notes: as for B1
B17: FJ1427 P035MP06G01 (VHH)
VHH: EVQLVESGGGLVQAGDSLRLSCVVSGRGFSTYTMGWFRQAPGKEREFVAAITWSTGRTSYADSVKGRFTISRENAENTVYLQMNSLELEDTAVYYCATDQVLWTTRPRDMRYWGQGTQVTVSF
notes: as for B1
B18: FJ1427_P035MP03E08 (VHH)
VHH: QVQLVESGGGLVQAGGSLRLSCAAAGRAIENYPVGWFRRAPGKEREFVAAITWISGSTLYADSVKGRFTISRDNAKNTVYLQMSSLKPEDTALYYCAAALKTITRGQNDYSYWGQGTQVTVSS
notes: as for B1
B19: FJ1427 P035MP03F09 (VHH)
VHH: B18 VHH with Q1E, R19T, A25S, I29F, E30S, R39Q, I54L, K65E, Q82L, Y95F
notes: as for B1
B20: FJ1427_P035MP03A07 (VHH)
VHH: QVQLVESGGGLVEAGGSLRLSCAASGRAFNNFPMGWFRQAPGKEREFVAAITWISGSTLYADSVKGRFTISRDKSKNTVYLQMSGLKPEDTALYYCAAALKTITRGQHDYTYWGQGTQVTVSS
notes: as for B1
B21: FJ1427 P035MP03D11 (VHH)
VHH: QVQLVESGGGLVQAGGSLRLSCAASGRTFSTTDVGWFRQAPGKEREFVAAITWSSHSTLYADSVEGRFTVTRENAKNTVYLQMNSLKPEDTAVYYCAAVRRGWAVVRTEGAYDFWGQGTQVTVSA
notes: as for B1
B22: FJ1427 P035MP03A06 (VHH)
VHH: EVQLVESGGGLVQTGGSLRLSCAVSGSRFISDVMGWYRQVPGKARELVADMADGGSAKYADSVKGRFSIVRDSGKSTMYLQMSSLKPEDTGMYYCKAGLWIAGRHSDYWGQGTQVTVSS
notes: as for B1
B23: FJ1427_P035MP03D10 (VHH)
VHH: QVQLQESGGGLVQAGDSLRLSCVVSGRDFSGYTMGWFRQPPGKEREFVALITWSTGRVHYTDSVEGRFTISRDSAKNTVYLQMNSLKPEDTAVYTCAAGRVGYTTNLHSYDYSGQGTQVIVSA
notes: as for B1
B24: FJ1427 P035MP03E05 (VHH)
VHH: EVQLVESGGGLVQAGGSLRLSCAVSGVIFWSDVVGWYRQASGKQRELVATINLDDTKHYGEVVKGRFAISRDSHKNAYYLQLNSLKPEDTAVYYCNVRRGSEFYWGQGTQVTVSS
notes: as for B1
B25: FJ1427_P035MP03G05 (VHH)
VHH: EVQLVESGGGLVQIGGSLRLSCAASGRTFSSITMAYFRQVPGKEREWVAGINFSGTRTFYADSVKGRFLISRDDAKSTMYLQMNSLKPEDTAVYYCAASPRGFYGPGNALYDYWGQGTQVTVSS
notes: as for B1
B26: FJ1427_P035MP03G10 (VHH)
VHH: QVQLVESGGGLVQAGGSLRLSCAASGRSYAMGWFRQAPGKEREFVAAISWSASSTYYSESVKGRFTISRENAKNTVYLQMNSLKPEDTAVYYCAVRASPFVAGSYDPSDDPADYGSWGQGTQVIVSS
notes: as for B1
B27: FJ1427_P035MP03A09 (VHH)
VHH: QVQLVESGGGLVQAGGSLRLACAASGRTFSTLTMGWFRQAPGKEREFVAGISPSGGYAWHADSVKGRFTIDRDNAKNTVYLQTRSLRPEDTAVYYCAADHPPYGAVASRSEYEYDDWGPGTRVTVSS
notes: as for B1
B28: FJ1427_P035MP03H09 (VHH)
VHH: QVQLVESGGGLVQAGGSLRLSCAASGSIFSINAMGWFRQAPGKEREFVAAISRSGGSTAYVDSVKGRFTISRDNSKNMVHLQMNSLKSEDEAVYYCAATAAVGWTSRWITTDFDSWGQGTQVTVSS
notes: as for B1
B29: FJ1427_P035MP03G07 (VHH)
VHH: QVQLVESGGGLVQAGGSLRLSCAASGRTFSSDAKGWFRQAPGKEREFVAAITWAGRGTDYADSVKGRFTITRDNAKNMVYLQMSNLKPEDTAVYYCALNPEGVIGPYFRNSNRYNYWGQGTQVTVSS
notes: as for B1

The first experiment concerns the target T1, human IL-2Rβ. Description: P.E. binding ELISA on coated protein. As to the method:
In a binding ELISA, human or mouse IL-2Rα, IL-2Rβ and IL-2Rγ proteins were coated directly on maxisorp microtiter plates overnight at 4° C. Free binding sites were blocked using 4% Marvel in PBS for 1 hour. Next, 1:5 dilution of P.E. in 1% Marvel/PBS were added to wells and incubated for 1 hour. […] Binding specificity was determined based on O.D. at 450 nm values compared to negative controls.
Take B1: the “P.E. binding ELISA OD” value was 0.474 OD450 nm.

As to B2, the “P.E. binding ELISA OD” value worked out at 0.321 OD450 nm.

Regarding B3, the “P.E. binding ELISA OD” value was 0.578 OD450 nm.

Regarding B4, the “P.E. binding ELISA OD” value amounted to 0.467 OD450 nm.

As to B5, the “P.E. binding ELISA OD” value is 0.148 OD450 nm.

Take B6: the “P.E. binding ELISA OD” value worked out at 0.843 OD450 nm.

With B7, the “P.E. binding ELISA OD” value came out at 1.34 OD450 nm.

B8: the “P.E. binding ELISA OD” value came out at 0.72 OD450 nm.

Take B9: the “P.E. binding ELISA OD” value is 0.435 OD450 nm.

Consider B10, for which the “P.E. binding ELISA OD” value stood at 0.348 OD450 nm.

For the molecule B11, the “P.E. binding ELISA OD” value is 0.649 OD450 nm.

B12: the “P.E. binding ELISA OD” value was found to be 1.26 OD450 nm.

B13: the “P.E. binding ELISA OD” value was 0.38 OD450 nm.

As for B14, the “P.E. binding ELISA OD” value turned out to be 0.624 OD450 nm.

In the case of B15, the “P.E. binding ELISA OD” value worked out at 0.398 OD450 nm.

As to B16, the “P.E. binding ELISA OD” value worked out at 0.372 OD450 nm.

As to B17, the “P.E. binding ELISA OD” value is 0.557 OD450 nm.

With B18, the “P.E. binding ELISA OD” value came out at 1.11 OD450 nm.

B19: the “P.E. binding ELISA OD” value turned out to be 0.621 OD450 nm.

Take B20: the “P.E. binding ELISA OD” value came out at 0.307 OD450 nm.

Take B21: the “P.E. binding ELISA OD” value worked out at 0.118 OD450 nm.

With B22, the “P.E. binding ELISA OD” value stood at 0.393 OD450 nm.

For B23, the “P.E. binding ELISA OD” value was 0.118 OD450 nm.

Consider B24, for which the “P.E. binding ELISA OD” value amounted to 0.23 OD450 nm.

With B25, the “P.E. binding ELISA OD” value turned out to be 0.914 OD450 nm.

Consider B26, for which the “P.E. binding ELISA OD” value was determined as 0.26 OD450 nm.

For B27, the “P.E. binding ELISA OD” value came out at 0.208 OD450 nm.

For the molecule B28, the “P.E. binding ELISA OD” value amounted to 0.166 OD450 nm.

For the molecule B29, the “P.E. binding ELISA OD” value came out at 0.201 OD450 nm.

Another experiment addresses T1, human IL-2Rβ. Kind of experiment: SPR (Biacore), P.E. off-rate ranking.
Molecule B1 displayed a dissociation rate constant (koff) of 0.000277 s⁻¹.

B2 yielded a dissociation rate constant (koff) of 0.0014 s⁻¹.

Consider B3, for which the koff stood at 0.00109 s⁻¹.

B4 yielded an off-rate (koff) of 0.00202 s⁻¹.

As for B5, the koff turned out to be 0.00149 s⁻¹.

Molecule B6 gave a koff of 0.000713 s⁻¹.

As for B7, the koff was determined as 0.000544 s⁻¹.

As for B8, the koff was 0.00101 s⁻¹.

As to B9, the koff amounted to 0.000853 s⁻¹.

Take B10: the dissociation rate constant (koff) came out at 0.000561 s⁻¹.

B11 returned a koff of 0.00172 s⁻¹.

Turning to B12, the koff is 0.00055 s⁻¹.

B13 came in with a koff of 0.00122 s⁻¹.

Molecule B14 returned a koff of 0.00148 s⁻¹.

In turn, B15 registered a koff of 0.00207 s⁻¹.

B16 gave a dissociation rate constant (koff) of 0.000533 s⁻¹.

As to B17, the off-rate (koff) was determined as 0.000143 s⁻¹.

As to B18, the koff came to 0.000149 s⁻¹.

In turn, B19 showed a koff of 0.000347 s⁻¹.

Consider B20, for which the dissociation rate constant (koff) stood at 0.000281 s⁻¹.

In turn, B21 gave a koff of 0.00102 s⁻¹.

Take B22: the koff worked out at 0.000195 s⁻¹. Compared with the last molecule, the koff is about 5.2-fold lower.

In turn, B23 displayed a koff of 0.0012 s⁻¹.

Molecule B24 yielded a koff of 0.000526 s⁻¹.

The molecule B25 returned a dissociation rate constant (koff) of 0.000351 s⁻¹. The koff values of the last two molecules are within 1.5-fold of each other.

Regarding B26, the koff was found to be 0.00165 s⁻¹.

The molecule B27 came in with a koff of 0.00048 s⁻¹.

B28: the koff turned out to be 0.00184 s⁻¹.

Take B29: the koff was determined as 0.00286 s⁻¹.
